B1: IMC-001 (antibody, V domains shown)
VH: QMQLVQSGAEVKKPGSSVKVSCKASGGTFSSYAYSWVRQAPGQGLEWMGGIIPSFGTANYAQKFQGRVTITADESTSTAYMELSSLRSEDTAVYYCARGPIVATITPLDYWGQGTLVTVSS
VL: SYVLTQPPSVSVAPGKTATIACGGENIGRKTVHWYQQKPGQAPVLVIYYDSDRPSGIPERFSGSNSGNTATLTISRVEAGDEADYYCLVWDSSSDHRIFGGGTKLTVL
B2: IMC-201 (bispecific antibody, human IgG1, lambda)
heavy: not shown
light: QSALTQPASVSGSPGQSISISCTGTSSDVGGHNYVSWYQQHPGKAPKLMIYDVRNRPSGVSNRFSGSKSGSTASLTISGLQTEDEADYYCNSYTGSRTYVFGSGTKLTVLGQPKAAPSVTLFPPSSEELQANKATLVCLISDFYPGAVTVAWKADSSPVKAGVETTTPSKQSNNKYAASSYLSLTPEQWKSHRSYSCQVTHEGSTVEKTVAPTECS
notes: also called Ab 1159.1
B3: IMC-002 (antibody, V domains shown)
VH: QVQLVQSGAEVKKPGASVKVSCKASGYTFTSYYMHWVRQAPGQGLEWMGIINPSGGSTSYAQKFQGRVTMTRDTSTSTVYMELSSLRSEDTAVYYCARSTLWVSEFDYWGQGTLVTVSS
VL: QSALTQPASVSGSPGQSISISCTGTSSDVGGHNYVSWYQQHPGKAPKLMIYDVRNRPSGVSNRFSGSKSGSTASLTISGLQTEDEADYYCNSYTGSRTYVFGSGTKLTVLG

Key:
recombinant human PD-L1 = target: T1, recombinant human PD-L1 (human, UniProt Q9NZQ7 19-238, limits assumed); experiment: ELISA, recombinant human PD-L1 coated at 75 ng/well, anti-human IgG Fcγ-HRP detection
T1 construct: also called single ligand (PD-L1)
T1 sequence (Q9NZQ7 19-238 limits assumed): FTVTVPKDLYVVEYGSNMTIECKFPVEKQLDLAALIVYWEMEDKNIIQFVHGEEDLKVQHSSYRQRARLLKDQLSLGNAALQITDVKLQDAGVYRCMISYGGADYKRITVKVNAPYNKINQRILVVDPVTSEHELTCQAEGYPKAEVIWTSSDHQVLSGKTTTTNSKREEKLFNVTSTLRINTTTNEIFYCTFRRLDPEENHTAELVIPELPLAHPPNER

recombinant human CD47 = target: T2, recombinant human CD47 (human, UniProt Q08722 19-139, limits assumed); experiment: ELISA, recombinant human CD47 coated at 50 ng/well, anti-human IgG Fcγ-HRP detection
T2 construct: also called single ligand (CD47)
T2 sequence (Q08722 19-139 limits assumed): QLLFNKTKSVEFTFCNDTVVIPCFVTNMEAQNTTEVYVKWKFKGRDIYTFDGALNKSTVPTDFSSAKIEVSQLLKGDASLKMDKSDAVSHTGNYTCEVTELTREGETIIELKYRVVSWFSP

[1] = target: T3, recombinant human CD47-fc (human, UniProt Q08722 19-139, limits assumed); experiment: dual-ligand (bridging) ELISA: CD47-fc coated, antibody titrated, then PD-L1-his at 50 ng/well, anti-his-HRP detection
T3 construct: Coated at 50 ng/well in the dual-ligand ELISA
T3 sequence (Q08722 19-139 limits assumed): as above

| Binder | EC50 (recombinant human PD-L1) | EC50 (recombinant human CD47) | EC50 [1] |
| --- | --- | --- | --- |
| B1 | 0.989 ng/mL | – | – |
| B2 | 7.24 ng/mL | 4.09 ng/mL | 17.4 ng/mL |
| B3 | – | 2.77 ng/mL | – |

From patent publication US20240254233A1 (IMMUNEONCIA THERAPEUTICS, published 2024)
